{
  "source": "paper PMC10536470",
  "about": "“Reducing the virulence of Pseudomonas aeruginosa by using multiple quorum-quenching enzymes” (Journal of Industrial Microbiology & Biotechnology, 2023)",
  "tested_on": "CCCCCCCCCC(=O)CC(=O)N[C@H]1CCOC1=O",
  "assay": "purified protein",
  "format": "biochemical, Chryseobacterium sp. StRB126",
  "details": "bicine 2.5 mM pH 8.0, 50 mM NaCl, 0.2 mM ZnCl2, 0.5% DMSO, 30 °C, substrate 0.2-2 mM",
  "data": [
    {"substance": "AidC (Chryseobacterium sp. StRB126)", "values": [
      {"measurement": "Km", "value": "560 ± 10", "unit": "µM"},
      {"measurement": "kcat", "value": "250 ± 18", "unit": "s⁻¹"}
    ]}
  ]
}
